Assay: yeast display, Sf9 membrane polyspecificity reagent, FACS + sequencing; frameworks hold sequencing errors
In short: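 Nanobodies from a synthetic yeast display library (Saccharomyces cerevisiae BJ5465), induced 36–48 hours with galactose, were stained 1 hour at 4 °C with 10% biotinylated, detergent-solubilized Sf9 membrane reagent, enriched on streptavidin microbeads, then FACS-sorted. Anti-HA (expression) and streptavidin (reagent binding) fluorescence set low and high (top ~1%) gates. Polyreactivity labels come from the gate of origin. Genes were colony-PCR amplified, MiSeq 2 × 250 sequenced and filtered by CDR length.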

Row | Sequence | polyreactivity (PSR sort gate)
1 | QVQLVESGGGLVQAGGSLRLSCAASGITFSANAMGWYRQAPGKERELVATITWSGGSTYYADSVKGRFTISRDNAKNTVYLQMNSLKPEDTAVYYCNARSYDEYPYYSYNYWGQGTQVTVSS | low polyreactivity
2 | QVQLVESGGGLVQAGGSLRLSCAASGITFSAYAMGWYRQAPGKERELVAAISWSGGNTYYADSVKGRFTISRDNAKNTVYLQMNSLKPEDTAVYYCAAEREAYNTWFDYWGQGTQVTVSS | high polyreactivity
3 | QVQLVESGGGLVQAGGSLRLSCAASGITFSRNPMGWYRQAPGKEWELVAAISWSGGSTYYADSVKGRYTISRDNAKNTVYLQMNSLKPEDTAVYYCNVGRRERLEGGYWGQGTQVTVSS | high polyreactivity
4 | QVQLVESGGGLVQAGGSLRLSCAASGITFSRYAMGWYRQAPGKERELVAAISKRGGRTYYADSVKGRFTISRDNAKKTDYLQMNSLKPEDTAVYYCATDYYVSTDYNYWGQGTQVTVSS | high polyreactivity
5 | QVQLVESGGGLVQAGGSLRLSCAASGITFSVNAMGWYRQAPGKERELVASISSGGSTNYADSVKGRFTISRDNAKNTVYLQMNSLKPEDTAVYYCAVAYYPHGREGAHFQYGYDYWGQGTQVTVSS | low polyreactivity
6 | QVQLVESGGGLVQAGGSLRLSCAASGITFSVYAMGWYRQAPGTERELVAAISGSAGSTYYADSVKGRFTISRDNAKNTVYLQLNSLKPEDTAVYYCAARLAPKYSPSSYNYWGEGTQVTVSS | high polyreactivity
7 | QVQLVESGGGLVQAGGSLRLSCAASGITFSVYTMGWYRQAPGKERELVAAIDSDGITNYADSVKGRFTISRDNAKNTVYLQMNSLKPEDTAVYYCAKQSGRADGVSGFDYWGQGTQVTVSS | low polyreactivity
8 | QVQLVESGGGLVQAGGSLRLSCAASGITFSWYVMGWSRQAPGKERDLVATITNRGGSTYYADSVKGRFTISRDNAKNTVYLQMNSLKPEDTAVYYCAARKKGSRVGYDYWGQGTQVTVSS | high polyreactivity
9 | QVQLVESGGGLVQAGGSLRLSCAASGITFSYYAMGWYRQAPGKERELVAASTSGGSTKYADSVKGRFTISRDNAKNTVYFQMNSLKPEDTAVYYCAVRIRRSHDYDYWGQGPQVTVSS | low polyreactivity
10 | QVQLVESGGGLVQAGGSLRLSCAASGITFTAYAMGWYRQAPGKERELVATINSTGITNYADSVKGRFTISRDNAKNTVYLQMNSLKPEDTAVYYCAADLLDISSYDGMDYWGHGTQVTVSS | low polyreactivity
11 | QVQLVESGGGLVQAGGSLRLSCAASGITFTGNSMGWYRQAPGKERELVAAISNRGGSTYYADSVKGRFTISRDNAKNTVYLQMNSLKREDTAVYYCRTSTPRRVSGNYWGQGTQVTVSS | high polyreactivity
12 | QVQLVESGGGLVQAGGSLRLSCAASGITFTGYAMGWYRQAPGKERELVAVISETGGSTYADSVKGRFTISRDNAKNTVYLQMNSLKPEDTAVYYCAARLWWPYSTAWAKMDYWGQGTQVTVSS | low polyreactivity
13 | QVQLVESGGGLVQAGGSLRLSCAASGITFTGYGMGWYRQAPGKERELVAAIRLRTGSTYYADSVKGRFTISRDNAKNTVYLQMYSLKPEDTAVYYCAAAFPRYRSRAIRVDYWGQGTQVTVSS | high polyreactivity
14 | QVQLVESGGGLVQAGGSLRLSCAASGITFTKYAMGWYRQAPGNERELVAAITTTGGSTYYADSVKGRFTISRDKAKNTVYLQMTSLKPEETAVYYCATELGWGGFYKYGHASQFDYWGQGTQVTVSS | low polyreactivity
15 | QVQLVESGGGLVQAGGSLRLSCAASGITFTKYVMGWYRQAPGKERELVATIRWGASSTHYADSVKGRFRISRDNAKNTVYFQMNSLKPEDTAVYYCNADCWYGAVYWWFYGFDYWGQGTQVTVSS | low polyreactivity
16 | QVQLVESGGGLVQAGGSLRLSCAASGITFTLYAMGWYRQSPGKERELVAAISRGGGTTYYADSVKGRFTISRDNAKNTVYLQMNSLKPEDTAVYYCATDWHSSGYWGQGTQVTVSS | low polyreactivity
17 | QVQLVESGGGLVQAGGSLRLSCAASGITFTNYAMGWYRQAPGKERELVAAISSRGGRTYYADSVKGRFTISRDNAKNTVYLQMNSLKPEDTAVYYCAASFFQVYGDDYWGQGTQVTVSS | high polyreactivity
18 | QVQLVESGGGLVQAGGSLRLSCAASGITFTPNAMGWYRQAPGTEREFVAAITYSGGSTYYADSVKGRFTISRDNAKNTVYLQMNSLKPEDTAVYYCAAVYDLLYYEAYYYWGQGTQVTVSS | low polyreactivity
19 | QVQLVESGGGLVQAGGSLRLSCAASGITFTRYAMGWYRQAPGKEREFVAAIRRSGGNTYYADSVKGRFTISRDNAKNTVYLQMNSLKPEDTAVYYCAASPDIIGTSGEDDYWGQGSQVTVSS | low polyreactivity
20 | QVQLVESGGGLVQAGGSLRLSCAASGITFTSYVMGWYRQAPGKERELVAAIRWSGGRTYYADSVKGRFTISRDNAKNTVYLQMNSLKPEDTAVYYCNRVTRSHVDYWGQGTQLTVSS | high polyreactivity
21 | QVQLVESGGGLVQAGGSLRLSCAASGITFTVYAMGWYRQAPGKERELVAAINSVSSTNYADSVKGRFTISRDNAKNTVYLQMNSLKPEVTAVYYCAASYRKLPDKKRYGYWGQGTKVTVSS | high polyreactivity
22 | QVQLVESGGGLVQAGGSLRLSCAASGITFTVYAMGWYRQAPGKERELVAAITSTGSTNYADSVKGRFTISRDNAKNTVYLQMNSLKPEDTAVYYCAARRSHQYRGPHFNYWGQGTQVTVSS | low polyreactivity

Row | Sequence | polyreactivity (PSR sort gate)
23 | QVQLVESGGGLVQAGGSLRLSCAASGITFVANAMGWYRQAPGKERELVAAITRGGSTNYADSVKGRFTISRDNAKNTVYLQMNSLKPEDTAVYYCAADYVTRIGRYDYWGQGSQVTVSS | low polyreactivity
24 | QVQLVESGGGLVQAGGSLRLSCAASGITFVFYAMGWYRQAPGKARELVATISYRGTSTYYADSVKGRFTISRDNAKNTVYLQMNSLKPEDTAVSYCAGDTYIYYKTGYGYWGQGTQVTVSS | low polyreactivity
25 | QVQLVESGGGLVQAGGSLRLSCAASGITFVFYAMGWYRQAPGKERELVATITWRTTRTFYADSVKRRFTISRDNAKNTVYLQMNSLKPEDTAVYYCAAGVNSTTRINDYWGQGTQVTVSS | low polyreactivity
26 | QVQLVESGGGLVQAGGSLRLSCAASGITFVKNAMGWYRQAPGKERELVARIRIGGSTSYADSVKGRFTISRDNAKNTVYLQMISLKPEDTAVYYCARYAGRLSYRYEYWGQGTQVTVSS | high polyreactivity
27 | QVQLVESGGGLVQAGGSLRLSCAASGITFVKNAMGWYRQAPGKERELVARIRIGGSTSYADSVKGRFTISRDNAKNTVYLQMNSLKPEDPAVYYCARYAGRLSYRYEFWGQGTQVTLSS | high polyreactivity
28 | QVQLVESGGGLVQAGGSLRLSCAASGITFVNYAMGWYRQAPGKERELVAAISNGGSTYYADSVKGRFTISRDNAKNTVYLQMNSLKPEDTAVYYCAAKPVQKFRPRYGYWGQGTQVTVSS | high polyreactivity
29 | QVQLVESGGGLVQAGGSLRLSCAASGITFVRNAMGWYRQAPGKEREFVAAISGSGVSTYADSVKGRFTISRDNAKNTVDEQMISLKPEDTAVYYCARDFPWSYAWYDYWGQGTLVTVSS | low polyreactivity
30 | QVQLVESGGGLVQAGGSLRLSCAASGITFVSYTMGWYRQAPGTEREFVAAITWNVASTYYADSVKGRFTISRDNAKNTVYLQMNSLKPEDTAVYYCAAGYDWSVITIYDYWGQGTQVTVSS | high polyreactivity
31 | QVQLVESGGGLVQAGGSLRLSCAASGITFVTYAMGWYRQAPGKERELVAAISRSGGNTYYADSVKGRFTISRDNAKNTVYLQMNSLKPEDTAVYYCAAGGHRERDYWGQGTQVTVSS | high polyreactivity
32 | QVQLVESGGGLVQAGGSLRLSCAASGITFVWNAMGWYRQAPGKERELVATISRGGVRTYYADSVKGRFTISRDNAKNTVYLQMNSLKPEDTAVYYCNVDETGVLVAYSFDYWGQGTQVTVSS | low polyreactivity
33 | QVQLVESGGGLVQAGGSLRLSCAASGITFVYYAMGWYRQAPGKERELVAAISVSGGSTYYADSVKGRFTISRDNAKNTVYLQMNSLKPEDTAVYYCAADGYSGIGVREGYWGQGTQVTVSS | high polyreactivity
34 | QVQLVESGGGLVQAGGSLRLSCAASGITFWHNTMGWYRQAPGKERELVAAISWTGGRTYYADSVKGRFTISRDNAKNTVYLQMNSLKPEDTAVYYCAADFSWTPSGNYDSWGQGTQVTVSS | low polyreactivity
35 | QVQLVESGGGLVQAGGSLRLSCAASGITFWKYAMGWYRQAPGKERELVAAISGRGGSTYYADSVKGRFTISRDNAKNTVYLQMNSLKPEDTAVYYCAVGYRGWDGYWGQGTQVTVSS | high polyreactivity
36 | QVQLVESGGGLVQAGGSLRLSCAASGITFWTYAMGWYRQAPGKERELVAAISKSGGSTYYADSVKGRFTISRDNAKYNVYLQLKSLKPEDTAVYYCAAKGLRYRDIDYDYWGQGTQVTVSW | low polyreactivity
37 | QVQLVESGGGLVQAGGSLRLSCAASGITFWYYAMGWSRQEPGKERELVAGISRSDSNTYYADSVKGRFTISRDNAKNTLYLQMNSLKPEDTAVYYCSAYYYRRRYGGKYDYWGQGTQVTVSS | high polyreactivity
38 | QVQLVESGGGLVQAGGSLRLSCAASGITFYDKAMGWYREAPGKERELVAGISYDGDSTYADSVKGRFTISRDNAKNTVYLQMNSLKPEDTAVYYCAALGPYDWLWAGDYWGQGTQVTVSS | low polyreactivity
39 | QVQLVESGGGLVQAGGSLRLSCAASGITFYDNAMGWYRPAPGKERELVAGISYDGDSTYADSVKGRFTISRDNAKNTVYLQMNSLKPEDTAVYYCAALGPYDWLWAGDYWGQGTQVTVSS | low polyreactivity
40 | QVQLVESGGGLVQAGGSLRLSCAASGITFYDNVMGWYRQAAGKERELVAAITSGGSTNYADSVKGRFTISRDNAKNTVYLQMNSLKPEDTAVYYCAAQPRVDYEFPYRYGYWGQGTQVTVSS | low polyreactivity
41 | QVQLVESGGGLVQAGGSLRLSCAASGITFYDNVMGWYRQAPGKERELVAAITDSGGSTYYADSVKGRFTISRDNAKNTVYLQMNSLKPEDTAVYYCNADVNAHWWWYIEEYWGQGTQVTVSS | low polyreactivity
42 | QVQLVESGGGLVQAGGSLRLSCAASGITFYDYAMGWYRQAPGKEREFFARITASGARTYYADSVKGRFTISRDNAKNTVYLQMNSLKPEDTAVYYCAVRGGRPSRRHYDKYDYWGQGTQVTVSS | low polyreactivity
43 | QVQLVESGGGLVQAGGSLRLSCAASGITFYEYAMGLYRKAPGKERELVAAISDRGGSTYYADSVKGRFTISRDNSKNTVYLQLNSLKPEDTAVYYCAGRNTPAQLDYWGQGTQVTVSS | low polyreactivity

Reference: the nanobody polyreactivity screen of Harvey et al. (2022)
